Measured values reported in patent US20240218067A1 (ONCOC4, published 2024).

T1: human Siglec-10 on the cell surface (human, UniProt Q96LC7 17-697)
T1 sequence (looked up): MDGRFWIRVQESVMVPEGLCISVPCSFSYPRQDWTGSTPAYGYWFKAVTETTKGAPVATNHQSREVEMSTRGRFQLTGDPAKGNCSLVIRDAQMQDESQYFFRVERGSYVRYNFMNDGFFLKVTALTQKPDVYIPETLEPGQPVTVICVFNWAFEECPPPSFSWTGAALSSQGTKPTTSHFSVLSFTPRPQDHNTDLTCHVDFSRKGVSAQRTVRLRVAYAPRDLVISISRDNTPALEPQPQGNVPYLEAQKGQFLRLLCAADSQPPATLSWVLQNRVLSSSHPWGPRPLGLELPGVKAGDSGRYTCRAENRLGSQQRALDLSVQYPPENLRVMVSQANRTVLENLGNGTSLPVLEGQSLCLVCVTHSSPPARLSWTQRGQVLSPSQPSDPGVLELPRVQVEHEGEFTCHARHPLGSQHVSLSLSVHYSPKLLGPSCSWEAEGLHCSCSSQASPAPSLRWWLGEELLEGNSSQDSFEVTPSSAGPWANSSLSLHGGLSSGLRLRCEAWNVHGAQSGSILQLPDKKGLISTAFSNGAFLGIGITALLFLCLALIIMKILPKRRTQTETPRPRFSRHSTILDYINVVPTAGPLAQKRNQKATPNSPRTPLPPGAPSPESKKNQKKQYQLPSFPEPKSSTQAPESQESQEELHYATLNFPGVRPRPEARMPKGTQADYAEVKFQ

T2: Siglec-10 (Biacore analysis) (UniProt Q96LC7 17-546, limits assumed)
T2 sequence (looked up): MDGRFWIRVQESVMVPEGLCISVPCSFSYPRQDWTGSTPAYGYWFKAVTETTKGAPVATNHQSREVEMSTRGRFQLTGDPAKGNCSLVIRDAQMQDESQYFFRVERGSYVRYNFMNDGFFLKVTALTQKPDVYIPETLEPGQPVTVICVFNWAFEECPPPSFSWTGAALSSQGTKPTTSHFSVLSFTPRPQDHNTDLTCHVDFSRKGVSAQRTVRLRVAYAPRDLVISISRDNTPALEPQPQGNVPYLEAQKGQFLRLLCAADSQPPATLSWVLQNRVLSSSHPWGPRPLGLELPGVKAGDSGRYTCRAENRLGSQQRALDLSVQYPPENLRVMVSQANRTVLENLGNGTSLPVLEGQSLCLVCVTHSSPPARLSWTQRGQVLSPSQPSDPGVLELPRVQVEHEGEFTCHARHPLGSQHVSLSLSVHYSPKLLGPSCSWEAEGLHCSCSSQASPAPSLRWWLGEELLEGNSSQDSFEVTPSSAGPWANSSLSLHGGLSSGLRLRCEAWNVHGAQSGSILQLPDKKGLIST


Columns and labels:
[1] = target: T1, human Siglec-10 on the cell surface; experiment: cell-based or functional assay
[2] = target: rhesus Siglec-10 on expi293 cells (rhesus) (UniProt F7GW74); experiment: flow cytometry on live expi293 cells transfected with rhesus Siglec-10; FMO median 13039
Chain of rhesus Siglec-10 on expi293 cells (rhesus) (F7GW74 entry or part of it): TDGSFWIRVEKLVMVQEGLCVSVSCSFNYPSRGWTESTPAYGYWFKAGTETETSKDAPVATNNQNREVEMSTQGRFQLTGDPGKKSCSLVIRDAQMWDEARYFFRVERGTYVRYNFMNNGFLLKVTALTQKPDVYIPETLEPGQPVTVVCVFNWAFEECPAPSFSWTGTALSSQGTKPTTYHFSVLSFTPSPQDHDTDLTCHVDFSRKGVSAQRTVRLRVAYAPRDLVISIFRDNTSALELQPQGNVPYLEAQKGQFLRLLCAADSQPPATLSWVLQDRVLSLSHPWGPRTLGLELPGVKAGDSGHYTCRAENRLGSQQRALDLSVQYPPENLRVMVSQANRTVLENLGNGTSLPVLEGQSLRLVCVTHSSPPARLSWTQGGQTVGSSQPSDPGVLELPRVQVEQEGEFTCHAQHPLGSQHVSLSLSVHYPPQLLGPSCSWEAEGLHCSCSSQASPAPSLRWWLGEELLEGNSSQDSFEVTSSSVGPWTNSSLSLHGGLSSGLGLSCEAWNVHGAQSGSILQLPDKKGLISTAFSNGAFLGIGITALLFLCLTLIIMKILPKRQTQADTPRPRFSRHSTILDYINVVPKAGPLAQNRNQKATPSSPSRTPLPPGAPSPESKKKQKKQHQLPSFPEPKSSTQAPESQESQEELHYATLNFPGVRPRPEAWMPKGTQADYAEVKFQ

[3] = target: human Siglec-10 extracellular domain recombinant protein (His or Fc tag) (human) (UniProt Q96LC7); experiment: ELISA, Siglec protein coated, biotinylated ONC-841, avidin-HRP
[4] = target: human Siglec-10 extracellular domain recombinant protein (His or Fc tag) (human) (UniProt Q96LC7); experiment: ELISA: Siglec-10 His coated, biotinylated ONC-841, avidin-HRP
[5] = target: marmoset Siglec-10 on expi293 cells (marmoset) (UniProt F6WZ94); experiment: flow cytometry on live expi293 cells transfected with marmoset Siglec-10; FMO median 13762
Chain of marmoset Siglec-10 on expi293 cells (marmoset) (F6WZ94 entry or part of it): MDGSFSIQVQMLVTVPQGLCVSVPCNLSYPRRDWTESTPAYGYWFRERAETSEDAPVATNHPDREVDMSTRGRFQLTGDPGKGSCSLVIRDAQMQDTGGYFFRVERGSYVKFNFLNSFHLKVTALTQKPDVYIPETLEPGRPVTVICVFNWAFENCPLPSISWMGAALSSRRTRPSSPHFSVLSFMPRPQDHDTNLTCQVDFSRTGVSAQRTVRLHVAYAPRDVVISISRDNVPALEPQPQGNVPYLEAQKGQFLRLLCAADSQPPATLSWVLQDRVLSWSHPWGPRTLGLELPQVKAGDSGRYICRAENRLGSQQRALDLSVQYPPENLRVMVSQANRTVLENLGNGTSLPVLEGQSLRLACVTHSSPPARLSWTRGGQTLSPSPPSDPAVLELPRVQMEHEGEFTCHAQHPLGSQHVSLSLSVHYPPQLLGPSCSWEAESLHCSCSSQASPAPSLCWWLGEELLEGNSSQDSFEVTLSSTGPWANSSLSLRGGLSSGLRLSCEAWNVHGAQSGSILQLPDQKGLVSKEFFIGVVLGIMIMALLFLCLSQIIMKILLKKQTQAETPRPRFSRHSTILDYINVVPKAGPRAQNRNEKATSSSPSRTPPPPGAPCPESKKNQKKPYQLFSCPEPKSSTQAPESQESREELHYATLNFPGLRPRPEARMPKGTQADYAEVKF

[6] = target: T1, human Siglec-10 on the cell surface; experiment: flow cytometry, human PBMC, monocytes, fluorescently labeled ONC-841 (upper left quadrant)
[7] = target: T1, human Siglec-10 on the cell surface; experiment: flow cytometry on live expi293 cells transfected with human Siglec-10; FMO median 14075
[8] = target: cynomolgus Siglec-10 on the cell surface (cynomolgus); experiment: flow cytometry, cynomolgus PBMC, CD14hi monocytes, without excess hIgG
Chain of cynomolgus Siglec-10 on the cell surface (cynomolgus) (chain, as listed by the source): as the sequence (F7GW74 entry or part of it) above, with S4N, K11E, M14T, H306R, G486R, D568E, S645F counted along it

[9] = target: T1, human Siglec-10 on the cell surface; experiment: flow cytometry, human PBMC, B cells, fluorescently labeled ONC-841 (upper left quadrant)
[10] = target: recombinant His-tagged human Siglec-10 (ACROBiosystems) (human) (UniProt Q96LC7); experiment: ELISA: His-tagged human Siglec-10 coated, ONC-841 detected with goat anti-human antibody
[11] = target: T1, human Siglec-10 on the cell surface; experiment: flow cytometry, human PBMC, CD14hi monocytes, without excess hIgG; FMO median 1244
[12] = target: cynomolgus Siglec-10 on the cell surface (cynomolgus); experiment: flow cytometry on live expi293 cells transfected with cynomolgus Siglec-10; FMO median 13824
[13] = target: T2, Siglec-10 (Biacore analysis); experiment: Biacore
[14] = target: T2, Siglec-10 (Biacore analysis); experiment: Biacore (data from a separate experiment); data from a separate experiment
[15] = target: T1, human Siglec-10 on the cell surface; experiment: flow cytometry, Jurkat cells expressing human Siglec-10

| EC50, ADCC reporter activity of anti-CD20 against Raji cells [1] [µg/mL] | EC50, ADCC reporter activity of cetuximab against B16 cells expressing human EGFR [1] [µg/mL] | IC50 (so in the source), ADCC reporter activity of ONC-392 against CTLA-4 expressing CHO cells [1] [µg/mL] | Median : Comp-APC-A [2] | Kd [3] [µg/mL] | EC50 (read off the curve) [4] [µg/mL] | Median : Comp-APC-A [5] | % positive cells [6] [%] | Median : Comp-APC-A [7] | Median : Comp-Alexa Fluor 488-A [8] | % positive cells [9] [%] | EC50 (read off the curve) [10] [µg/mL] | Median : Comp-Alexa Fluor 488-A [11] | Median : Comp-APC-A [12] | ADCC EC50 [1] [µg/mL] | koff [13] [s⁻¹] | kon [13] [M⁻¹ s⁻¹] | Kd [14] [nM] | EC50 [15] [µg/mL] | Kd [13] [nM] | Molecule |
| --- | --- | --- | --- | --- | --- | --- | --- | --- | --- | --- | --- | --- | --- | --- | --- | --- | --- | --- | --- | --- |
| 0.5 | 0.3 | 0.08 | 13100 | 0.0225 | 0.02 | 14200 | 79 | 64200 | 1770 | 51 | 0.009 | 7250 | 14500 |  |  |  |  |  |  | ONC-841 (antibody) |
|  |  |  |  |  |  |  |  |  |  |  |  |  |  | 0.153 | 0.000589 | 272000 | 2.17 | 0.242 |  | humanized 31F11 clone #21 (antibody, V domains shown, also called hu-VHv1VLv2) VH: QVTLKESGPALVKPTQTLTLTCTFSGFSLSTSGMGLSWIRQPPGKALEWLAHIYWDDDKRYNPSLKSRLTISKDTSKNQVVLTMTNMDPVDTATYYCVRGLYGNWFFDVWGQGTTVTVSS VL: DIVMTQSPATLSVSPGERATLSCKASQNVGTAVAWYQQKPGQAPRLLIYSASNRYTGVPARFSGSGSGTEFTLTISSLQSEDFAVYFCQQYSSYPLTFGGGTKVEIK |
|  |  |  |  |  |  |  |  |  |  |  |  |  |  | 0.266 | 0.000202 | 164000 |  | 0.237 | 1.23 | humanized 31F11 clone #22 (antibody, V domains shown, also called hu-VHv2VLv2) VH: QVTLKESGPALVKPTQTLTLTCTFSGFSLSTSGMGLSWIRQPPGKALEWLAHIYWDDDKRYNPSLKSRLTISKDTSKNQVVLTMTNMDPVDTATYYCVRGLYGNWFFDVWGAGTTVTVSS VL: DIVMTQSPATLSVSPGERATLSCKASQNVGTAVAWYQQKPGQAPRLLIYSASNRYTGVPARFSGSGSGTEFTLTISSLQSEDFAVYFCQQYSSYPLTFGGGTKVEIK |
|  |  |  |  |  |  |  |  |  |  |  |  |  |  | 0.342 | 0.000197 | 131000 |  | 0.237 | 1.5 | humanized 31F11 clone #23 (antibody, V domains shown) VH: QVTLKESGPALVKPTQTLTLTCTFSGFSLSTSGMGLSWIRQPPGKALEWLAHIYWDDDKRYNPSLKSRLTISKDTSKNQVVLTMTNMDPVDTATYYCARGLYGNWFFDVWGQGTTVTVSS VL: DIVMTQSPATLSVSPGERATLSCKASQNVGTAVAWYQQKPGQAPRLLIYSASNRYTGVPARFSGSGSGTEFTLTISSLQSEDFAVYFCQQYSSYPLTFGGGTKVEIK |
